Assay results: paper PMC6380343, “Interactions and activities of factors involved in the late stages of human 18S rRNA maturation” (RNA Biology, 2019)

T1: His-tagged NOB1 (human, UniProt Q9ULX3 1-412)
T1 construct: also called His-NOB1; source: E. coli BL21 Codon Plus, purified (Ni-NTA, desalted); not shown: His6, N-terminal, kept
T1 sequence (looked up): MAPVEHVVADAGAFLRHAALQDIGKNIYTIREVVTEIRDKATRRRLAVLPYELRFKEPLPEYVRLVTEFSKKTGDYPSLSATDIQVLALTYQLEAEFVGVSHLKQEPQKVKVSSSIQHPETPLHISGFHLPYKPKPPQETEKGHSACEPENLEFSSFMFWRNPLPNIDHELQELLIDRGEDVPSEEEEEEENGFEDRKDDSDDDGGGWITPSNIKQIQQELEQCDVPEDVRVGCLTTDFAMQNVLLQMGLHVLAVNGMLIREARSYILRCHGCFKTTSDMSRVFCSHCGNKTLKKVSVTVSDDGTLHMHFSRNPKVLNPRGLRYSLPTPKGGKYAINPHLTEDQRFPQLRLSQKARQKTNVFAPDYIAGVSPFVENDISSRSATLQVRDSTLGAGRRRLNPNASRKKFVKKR


Assays:
GST-tagged RIO2 = molecular target: T2, GST-tagged RIO2 (human, UniProt Q9BVS4-1 1-552); experiment: pull-down; 50 ng GST-tagged bait with equal amounts of His-tagged or untagged prey; 50 mM Tris-HCl pH 8.0, 10% glycerol, 300 mM NaCl, 5 mM MgCl2, 0.1% Tween20; 1 h at 4°C; glutathione sepharose; western blotting; conditions: both partners purified
T2 construct: also called GST-RIO2; source: E. coli BL21 Codon Plus, purified (glutathione sepharose, desalted); not shown: GST, N-terminal, kept
T2 sequence (Q9BVS4 whole entry): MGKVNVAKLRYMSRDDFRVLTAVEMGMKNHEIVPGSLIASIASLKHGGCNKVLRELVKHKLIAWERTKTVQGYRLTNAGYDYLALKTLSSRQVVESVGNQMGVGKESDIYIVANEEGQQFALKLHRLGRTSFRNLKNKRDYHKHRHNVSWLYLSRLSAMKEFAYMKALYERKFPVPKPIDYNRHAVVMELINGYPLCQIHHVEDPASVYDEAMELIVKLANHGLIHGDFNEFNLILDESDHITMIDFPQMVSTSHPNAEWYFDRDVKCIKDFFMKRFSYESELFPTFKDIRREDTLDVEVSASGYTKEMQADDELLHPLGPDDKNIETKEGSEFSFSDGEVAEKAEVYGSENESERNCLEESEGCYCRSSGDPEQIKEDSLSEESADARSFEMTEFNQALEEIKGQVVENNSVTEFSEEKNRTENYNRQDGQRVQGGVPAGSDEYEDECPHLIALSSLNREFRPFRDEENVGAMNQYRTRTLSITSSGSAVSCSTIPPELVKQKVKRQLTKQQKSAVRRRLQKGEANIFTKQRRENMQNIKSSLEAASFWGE

His-tagged NOB1 = molecular target: T1, His-tagged NOB1; experiment: as above; conditions: both partners purified

| binding result (GST-tagged RIO2) | binding result (His-tagged NOB1) | Binder |
| --- | --- | --- |
| binds |  | His-tagged DIM1 (natural protein, human, UniProt Q9UNQ2 1-313, looked up, also called His-DIM1; source: E. coli BL21 Codon Plus, purified (Ni-NTA, desalted); not shown: His6, N-terminal, kept) MPKVKSGAIGRRRGRQEQRRELKSAGGLMFNTGIGQHILKNPLIINSIIDKAALRPTDVVLEVGPGTGNMTVKLLEKAKKVVACELDPRLVAELHKRVQGTPVASKLQVLVGDVLKTDLPFFDTCVANLPYQISSPFVFKLLLHRPFFRCAILMFQREFALRLVAKPGDKLYCRLSINTQLLARVDHLMKVGKNNFRPPPKVESSVVRIEPKNPPPPINFQEWDGLVRITFVRKNKTLSAAFKSSAVQQLLEKNYRIHCSVHNIIIPEDFSIADKIQQILTSTGFSDKRARSMDIDDFIRLLHGFNAEGIHFS |
|  | binds | GST-tagged PNO1 (natural protein, also called GST-PNO1; source: E. coli BL21 Codon Plus, purified (glutathione sepharose, desalted); not shown: GST, N-terminal, kept) not shown |
